Measured values taken from patent publication US20150037333A1.

Target: canine TNF-alpha (canine) (UniProt P51742)
Assay: cell-based or functional assay

canine TNF-alpha (canine), sequence (P51742 77-233 limits assumed): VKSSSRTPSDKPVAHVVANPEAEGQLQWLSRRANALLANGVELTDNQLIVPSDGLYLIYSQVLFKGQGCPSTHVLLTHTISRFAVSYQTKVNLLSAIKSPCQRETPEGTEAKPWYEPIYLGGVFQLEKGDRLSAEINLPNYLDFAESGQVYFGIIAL

inhibition of canine TNF-alpha bioactivity (1 ng/ml) in 293-HEK cells with NF-kB-EGFP reporter construct pTRH1; IC50: 1 ng/ml
Substance: human TNFR-canine HCB control fusion protein (human TNFR extracellular domain fused N-terminally to canine HCB hinge-CH2-CH3) (Fc fusion)
